{"source": "paper PMC8405998", "about": "“Catalytic mechanism of ancestral L-lysine oxidase assigned by sequence data mining” (The Journal of Biological Chemistry, 2021)", "key": {"[1]": {"biological_target": "T1, AncLLysO (synthetic construct, UniProt Z9DQU9YC40)", "T1 sequence (Z9DQU9YC40 1-589)": "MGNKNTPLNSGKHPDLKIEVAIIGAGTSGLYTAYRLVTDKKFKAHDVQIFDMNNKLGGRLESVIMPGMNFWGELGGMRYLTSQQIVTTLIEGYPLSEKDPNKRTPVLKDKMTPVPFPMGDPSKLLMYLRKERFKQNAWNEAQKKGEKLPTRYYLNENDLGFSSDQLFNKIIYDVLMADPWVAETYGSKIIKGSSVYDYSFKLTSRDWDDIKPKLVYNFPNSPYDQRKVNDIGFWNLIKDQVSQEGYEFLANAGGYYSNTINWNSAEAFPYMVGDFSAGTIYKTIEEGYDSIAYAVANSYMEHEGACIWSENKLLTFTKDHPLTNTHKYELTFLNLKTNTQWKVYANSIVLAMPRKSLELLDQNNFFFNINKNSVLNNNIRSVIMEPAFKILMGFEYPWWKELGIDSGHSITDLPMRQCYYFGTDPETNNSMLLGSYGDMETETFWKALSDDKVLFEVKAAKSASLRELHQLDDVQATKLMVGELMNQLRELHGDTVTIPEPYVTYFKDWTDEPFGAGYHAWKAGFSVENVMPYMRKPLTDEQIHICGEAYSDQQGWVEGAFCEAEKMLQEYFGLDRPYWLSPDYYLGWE", "assay": "X-ray crystal structure, […]-2.[…] Å", "format": "binding", "settings": "substrate-free form; crystals at pH 7.5"}, "[2]": {"test_system": "N=C(N)NCCC[C@H](N)C(=O)O", "assay": "purified protein", "settings": "100 mM Bis-Tris-HCl pH 7.0, O2 as co-substrate"}, "[3]": {"substrate": "N=C(N)NCCC[C@H](N)C(=O)O", "assay": "purified protein", "settings": "100 mM Bis-Tris-HCl pH 7.0, O2 as co-substrate", "remark": "listed apart in the source"}, "[4]": {"substrate": "NCCCC[C@H](N)C(=O)O", "assay": "purified protein", "settings": "100 mM Bis-Tris-HCl pH 7.0, O2 as co-substrate"}, "[5]": {"substrate": "NCCC[C@H](N)C(=O)O", "assay": "purified protein", "settings": "100 mM Bis-Tris-HCl pH 7.0, O2 as co-substrate"}}, "data": [{"molecule": "Cc1cc2nc3c(=O)[nH]c(=O)nc-3n(C[C@H](O)[C@H](O)[C@H](O)COP(=O)(O)OP(=O)(O)OC[C@H]3O[C@@H](n4cnc5c(N)ncnc54)[C@H](O)[C@@H]3O)c2cc1C", "note": "[FAD]", "values": [{"measurement": "X-ray crystal structure, 2.2-2.4 Å", "setting": "[1]", "result": "the Rossmann-core fold, which recognizes FAD"}]}, {"molecule": "AncLLysO (synthetic construct)", "values": [{"measurement": "Km", "setting": "[2]", "result": "6900 ± 1100", "unit": "µM"}, {"measurement": "kcat", "setting": "[2]", "result": "11.4 ± 1", "unit": "s⁻¹"}, {"measurement": "kcat/Km", "setting": "[2]", "result": 1700, "unit": "M⁻¹ s⁻¹"}]}, {"molecule": "CaLLysO (Chryseobacterium angstadtii) (protein) MNKNTPLNTGKQPDLKTEVAIIGAGTSGLYTAYRLVTDKKYTASEVQIFDMNDKLGGRLESVIMPGMNFWGELGGMRYLTSQEIVTTLIEGYPLSETDPAKRIPVLKDKMTPVPFPMGDPSKLLMYLRKDRCKQDAWTVAQGEGEKLPTRYYLNDDDFGFSSDQLFNKVIYDVLMADAWVAETYGKKIIKGSSIYDYSFELTSRDWDDIKPKLVYNFPNSPYDQRKVNDLGFWNLLKDQVSQEGYEFLANAGGYYSNTINWNAAEAFPYMVGDFSAGTIYKTIEEGYDSIAYAVANSYMEHEGACIWSKNKLLTFTKDHDLKSTYKYRLTFLNLETNTQWNVYANTLVLAMPRKSLELLDQDNFFFNINENSVLNENIRSVIMEPAFKILMGFPYPWWKELGIDSGHSITDLPMRQCYYFGTDPQTNNSMLLGSYGDMETETFWKALSDDKILFEVKAAKSASLKELHELDDVQATRMMVDELMNQLRELHGEEITIPEPYVTYFKDWTDEPFGAGYHAWKAGFSVENVMPYMRKPVADEQIHIVGEAYSDQQGWVEGAFCEAEKMLQEYFGLNRPIWLNPDYYLGW", "values": [{"measurement": "Km", "setting": "[3]", "result": "340 ± 30", "unit": "µM"}, {"measurement": "kcat", "setting": "[3]", "result": "11.4 ± 0.1", "unit": "s⁻¹"}, {"measurement": "kcat/Km", "setting": "[3]", "result": 33200, "unit": "M⁻¹ s⁻¹"}, {"measurement": "Km", "setting": "[4]", "result": "27 ± 3", "unit": "µM"}, {"measurement": "Km", "setting": "[5]", "result": "4400 ± 400", "unit": "µM"}, {"measurement": "kcat", "setting": "[5]", "result": 3.6, "unit": "s⁻¹"}, {"measurement": "kcat/Km", "setting": "[5]", "result": 810, "unit": "M⁻¹ s⁻¹"}]}]}
